How the values were obtained:
[1] = target: T1, human CD3 complex on Jurkat cells (human, UniProt P07766 23-207; P04234 22-171; P09693 23-182; P20963 22-164); experiment: FACS on Jurkat cells, PE goat anti-human IgG (H+L) secondary antibody, MFI
T1 construct: whole, on cells; Endogenous CD3 complex of Jurkat / JURKAT-NFAT-Luc cells; also called human Jurkat T cells; CD3 on the surface of JURKAT-NFAT-Luc cells
Method: (§1) The cells were re-suspended in PBS, counted, and centrifuged again to remove the supernatants. The cells were re-suspended in 2% FBS-PBS, to adjust the cell concentration to 4×10⁶/ml. Each kind of cells were added to 96-well U-bottom plates, 50 μl/well. The antibodies were diluted in 2% FBS-PBS, 5-fold serial dilution starting at 40 μg/ml, obtaining 12 concentrations in total. The 96-well plates were added with 50 μl antibody dilution, mixed well, and incubated at room temperature for 1 h. The plates were washed by 2% FBS-PBS, 200 μl/well, for three times. The plates were added with PE labelled goat-anti-human IgG (H+L) secondary antibody (1:500 diluted), 50 μl/well, and incubated at room temperature for 45 min. The plates were washed by 2% FBS-PBS, 200 μl/well, for three times. Finally the plates were added with 150 μl 2% FBS-PBS to re-suspend the cells, and the cells were tested in a flow cytometer. The data was processed in FlowJo and analyzed in GraphPad.

[2] = target: T2, monkey BCMA expressed on HEK293A cells (monkey, UniProt Q02223 1-184 (human entry)); experiment: FACS on HEK293A/monkey BCMA cells, PE goat anti-human IgG (H+L) secondary antibody, MFI
T2 construct: also called HEK293A/monkey BCMA cells
Method: as §1

[3] = target: T3, monkey GPRC5D expressed on HEK293T cells (monkey, UniProt Q9NZD1 1-298 (human entry)); experiment: FACS on HEK293T/monkey GPRC5D cells, PE goat anti-human IgG (H+L) secondary antibody, MFI
T3 construct: also called HEK293T/monkey GPRC5D cells
T3 chain: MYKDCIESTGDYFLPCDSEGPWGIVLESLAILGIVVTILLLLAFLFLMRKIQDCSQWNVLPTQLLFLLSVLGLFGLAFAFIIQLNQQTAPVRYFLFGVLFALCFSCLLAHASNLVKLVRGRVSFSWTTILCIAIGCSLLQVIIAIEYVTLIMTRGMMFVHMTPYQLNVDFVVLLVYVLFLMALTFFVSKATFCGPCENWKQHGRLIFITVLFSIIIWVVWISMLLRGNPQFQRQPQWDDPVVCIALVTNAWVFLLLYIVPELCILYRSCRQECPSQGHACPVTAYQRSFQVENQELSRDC
Method: as §1

[4] = target: T4, human GPRC5D expressed on HEK293T cells (human, UniProt Q9NZD1 1-345); experiment: FACS on HEK293T/human GPRC5D cells, PE goat anti-human IgG (H+L) secondary antibody, MFI
T4 construct: also called HEK293T/human GPRC5D cells
Method: as §1

[5] = target: T5, mouse BCMA expressed on HEK293A cells (mouse, UniProt O88472 1-185); experiment: FACS on HEK293A/mouse BCMA cells, PE goat anti-human IgG (H+L) secondary antibody, MFI
T5 construct: also called HEK293A/mouse BCMA cells
T5 sequence: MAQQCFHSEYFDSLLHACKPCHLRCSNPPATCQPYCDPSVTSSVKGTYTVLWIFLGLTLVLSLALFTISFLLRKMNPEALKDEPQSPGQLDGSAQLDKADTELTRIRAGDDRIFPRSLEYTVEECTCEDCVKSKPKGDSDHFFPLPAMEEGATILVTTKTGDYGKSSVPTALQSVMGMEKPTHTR
Method: as §1

[6] = target: T6, human BCMA antigen (Cat #:BCA-H522y, ACRO) (human, UniProt Q02223 1-54); experiment: SPR (BIAcore 8K), antibody captured by anti-human Fc on CM5 chip, antigen as analyte
T6 construct: Bought recombinant protein used as SPR analyte
T6 sequence: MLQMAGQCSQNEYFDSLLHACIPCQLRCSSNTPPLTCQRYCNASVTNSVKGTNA
Method: (§2) The mouse anti-human Fe antibody (Cat #:BR100839, cytiva) was coupled to the surface of a CM5 chip. The antibody to be tested was diluted to 1 μg/ml with the HBS-EP buffer (Cat #:BR-1006-69, GE Life Sciences), to ensure about 100 RU of the antibody was captured by the anti-human Fe antibody. The human BCMA antigen (Cat #:BCA-H522y, ACRO), human CD3D&E protein (Cat #: CT038-H2508H, Sino biological), and human GPRC5D antigen (Cat #:HM05P, Kactus Biosystems) were diluted with HBS-EP buffer to […], respectively. Each protein at different concentrations was flowed through the surface of the stationary phase. Chips were regenerated by 3 M MgCl₂ solution. The kinetics assay was run with the Kinetics Wizard in BIAcore 8K's control software. […] The data was fitted in BIAcore 8K's evaluation software, and KD values of the test antibodies to the above antigens were determined and summarized in Table 1.

[7] = target: T7, human CD3D&E protein (Cat #: CT038-H2508H, Sino biological) (human, UniProt P04234 22-105; P07766 23-126); experiment: as above
T7 construct: Bought recombinant delta/epsilon complex used as SPR analyte; also called CD3D&E complex
Method: as §2

[8] = target: T8, human GPRC5D antigen (Cat #:HM05P, Kactus Biosystems) (human, UniProt Q9NZD1 1-345, limits assumed); experiment: as above
T8 construct: Bought antigen used as SPR analyte
Method: as §2

[9] = target: T9, human BCMA expressed on HEK293A cells (human, UniProt Q02223 1-184); experiment: FACS on HEK293A/human BCMA cells, PE goat anti-human IgG (H+L) secondary antibody, MFI
T9 construct: also called HEK293A/human BCMA cells
T9 sequence: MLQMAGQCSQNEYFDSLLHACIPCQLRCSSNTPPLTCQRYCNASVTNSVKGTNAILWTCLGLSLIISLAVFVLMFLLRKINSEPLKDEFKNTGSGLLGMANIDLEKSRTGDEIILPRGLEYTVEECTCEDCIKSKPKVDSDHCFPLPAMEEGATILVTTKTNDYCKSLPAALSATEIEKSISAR
Method: as §1

T8 sequence (Q9NZD1 whole entry): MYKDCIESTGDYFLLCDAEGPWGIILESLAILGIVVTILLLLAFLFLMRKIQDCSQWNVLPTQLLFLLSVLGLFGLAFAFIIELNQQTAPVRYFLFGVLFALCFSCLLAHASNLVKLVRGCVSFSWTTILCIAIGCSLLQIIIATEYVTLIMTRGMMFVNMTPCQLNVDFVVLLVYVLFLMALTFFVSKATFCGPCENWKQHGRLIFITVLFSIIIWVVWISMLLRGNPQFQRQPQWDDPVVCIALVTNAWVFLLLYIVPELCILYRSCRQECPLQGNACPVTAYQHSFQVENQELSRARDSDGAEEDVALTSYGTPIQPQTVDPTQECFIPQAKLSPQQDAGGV
T7 sequence (P04234 22-105, chain 1 of 2): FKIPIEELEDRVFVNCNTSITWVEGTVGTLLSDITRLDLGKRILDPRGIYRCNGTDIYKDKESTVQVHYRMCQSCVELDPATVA
T7 sequence (P07766 23-126, chain 2 of 2): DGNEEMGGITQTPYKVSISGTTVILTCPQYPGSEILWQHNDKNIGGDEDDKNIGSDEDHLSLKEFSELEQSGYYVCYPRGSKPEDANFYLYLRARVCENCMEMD
T1 sequence (P07766 23-207, chain 1 of 4): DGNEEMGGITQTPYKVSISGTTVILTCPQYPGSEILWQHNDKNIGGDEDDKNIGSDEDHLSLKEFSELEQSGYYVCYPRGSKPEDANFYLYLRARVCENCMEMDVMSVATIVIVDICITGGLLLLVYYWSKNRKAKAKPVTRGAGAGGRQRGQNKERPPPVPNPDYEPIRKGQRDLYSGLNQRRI
T1 sequence (P04234 22-171, chain 2 of 4): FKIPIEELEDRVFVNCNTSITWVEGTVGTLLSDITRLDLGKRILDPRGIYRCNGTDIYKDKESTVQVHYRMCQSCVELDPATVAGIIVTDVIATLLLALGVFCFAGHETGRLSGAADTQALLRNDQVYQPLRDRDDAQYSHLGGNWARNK
T1 sequence (P09693 23-182, chain 3 of 4): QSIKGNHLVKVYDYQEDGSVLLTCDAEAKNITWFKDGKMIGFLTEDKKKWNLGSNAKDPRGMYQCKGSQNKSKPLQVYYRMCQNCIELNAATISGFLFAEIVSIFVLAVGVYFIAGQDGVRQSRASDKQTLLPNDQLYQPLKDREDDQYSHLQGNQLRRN
T1 sequence (P20963 22-164, chain 4 of 4): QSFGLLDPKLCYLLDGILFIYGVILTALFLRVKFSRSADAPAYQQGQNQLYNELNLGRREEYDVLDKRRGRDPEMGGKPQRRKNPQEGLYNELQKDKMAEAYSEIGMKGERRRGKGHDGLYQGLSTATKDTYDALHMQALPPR
T4 sequence (Q9NZD1 whole entry): as the sequence (Q9NZD1 whole entry) above
T2 sequence (Q02223 other isoform, or with tags, fused parts or gaps): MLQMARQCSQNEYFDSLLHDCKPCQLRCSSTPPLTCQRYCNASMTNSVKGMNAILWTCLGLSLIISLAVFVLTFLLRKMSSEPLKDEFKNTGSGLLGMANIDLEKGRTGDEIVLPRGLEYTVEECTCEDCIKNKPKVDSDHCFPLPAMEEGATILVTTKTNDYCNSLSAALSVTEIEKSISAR

Row | Binder | EC50 (read off the curve) [1] [µg/mL] | EC50 (read off the curve) [2] [µg/mL] | EC50 (read off the curve) [3] [µg/mL] | EC50 (read off the curve) [4] [µg/mL] | binding result [5] | Kd [6] [nM] | koff [6] [s⁻¹] | kon [6] [M⁻¹ s⁻¹] | Kd [7] [nM] | koff [7] [s⁻¹] | kon [7] [M⁻¹ s⁻¹] | Kd [8] [nM] | koff [8] [s⁻¹] | kon [8] [M⁻¹ s⁻¹] | binding result [1] | EC50 (read off the curve) [9] [µg/mL]
1 | JNJ-64407564 (bi-specific GPRC5D×CD3 antibody) (bispecific antibody) chain 1: QVQLVQSGAEVKKPGASVKVSCKASGYSFTGYTMNWVRQAPGQGLEWMGLINPYNSDTNYAQKLQGRVTMTTDTSTSTAYMELRSLRSDDTAVYYCARVALRVALDYWGQGTLVTVSS chain 2: DIQMTQSPSSLSASVGDRVTITCKASQNVATHVGWYQQKPGKAPKRLIYSASYRYSGVPSRFSGSGSGTEFTLTISNLQPEDFATYYCQQYNRYPYTFGQGTKLEIK chain 3: EVQLVESGGGLVQPGGSLRLSCAASGFTFNTYAMNWVRQAPGKGLEWVARIRSKYNNYATYYAASVKGRFTISRDDSKNSLYLQMNSLKTEDTAVYYCARHGNFGNSYVSWFAYWGQGTLVTVSS chain 4: QTVVTQEPSLTVSPGGTVTLTCRSSTGAVTTSNYANWVQQKPGQAPRGLIGGTNKRAPGTPARFSGSLLGGKAALTLSGVQPEDEAEYYCALWYSNLWVFGGGTKLTVL | ~0.06 |  |  |  |  |  |  |  |  |  |  |  |  |  |  | 
2 | MBS314 (tri-specific GPRC5D×BCMA×CD3 antibody) (other, also called antibody MBS314; tri-specific CD3×BCMA×GPRC5D antibody) heavy 1: QVQLVQSGAEVKKPGASVKVSCKASGYTFTNHIIHWVRQAPGQGLEWMGYINPYPGYHGYNDKFSGRATMTSDTSTSTVYMELSSLRSEDTAVYYCARDGYYRDQDVLDYWGQGTLVTVSSGGGGSGGGGSGGGGSGGGGSDIQMTQSPSSLSASVGDRVTITCKASQDISQYLNWYQQKPGKAPKLLIYYTSGLHPGVPSRFSGSGSGTDFTFTISSLEPEDEATYYCQQGYALPWTFGQGTKLTAKGGGGSGGGGSGGGGSEVQLVESGGGLVQPGRSLRLSCAASGFTFDDFAMHWVRQAPGKGLEWVSGITWNSGSVGYADSVKGRFTISRDNAKKSLYLQMNSLRAEDTALYYCAKDRSGYGHYYYGMDVWGQGTTVTVASASTKGPSVFPLAPSSKSTSGGTAALGCLVKDYFPEPVTVSWNSGALTSGVHTFPAVLQSSGLYSLSSVVTVPSSSLGTQTYICNVNHKPSNTKVDKKVEPKSCDKTHTCPPCPAPEAAGGPSVFLFPPKPKDTLMISRTPEVTCVVVDVSHEDPEVKFNWYVDGVEVHNAKTKPREEQYASTYRVVSVLTVLHQDWLNGKEYKCKVSNKALPAPIEKTISKAKGQPREPQVYTLPPSREEMTKNQVSLWCLVKGFYPSDIAVEWESNGQPENNYKTTPPVLDSDGSFFLYSKLTVDKSRWQQGNVFSCSVMHEALHNHYTQKSLSLSPGK light 1: not shown heavy 2: QVQLQESGPGLVKPSETLSLTCTVSGYSITSDYAWNWIRQPPGKGLEWMGYISYSGSATYSPSLKSRITISRDTSKNQFSLKLSSVTAADTAVYYCARGGIAGRGRWGAMDYWGQGTTVTVSSASTKGPSVFPLAPSSKSTSGGTAALGCLVKDYFPEPVTVSWNSGALTSGVHTFPAVLQSSGLYSLSSVVTVPSSSLGTQTYICNVNHKPSNTKVDKKVEPKSCDKTHTCPPCPAPEAAGGPSVFLFPPKPKDTLMISRTPEVTCVVVDVSHEDPEVKFNWYVDGVEVHNAKTKPREEQYASTYRVVSVLTVLHQDWLNGKEYKCKVSNKALPAPIEKTISKAKGQPREPQVYTLPPSREEMTKNQVSLSCAVKGFYPSDIAVEWESNGQPENNYKTTPPVLDSDGSFFLVSKLTVDKSRWQQGNVFSCSVMHEALHNHYTQKSLSLSPGK light 2: DIQMTQSPSSLSASVGDRVTITCKASQNVGTNVAWYQQKPGQSPKALIYSASYRDSGVPDRFSGSGSGTDFTLTISSLQPEDFATYYCQQYKSYPLTFGQGTRLEIKRTVAAPSVFIFPPSDEQLKSGTASVVCLLNNFYPREAKVQWKVDNALQSGNSQESVTEQDSKDSTYSLSSTLTLSKADYEKHKVYACEVTHQGLSSPVTKSFNRGEC |  | ~0.8 | ~0.4 | ~0.4 | no binding | 0.441 | 0.000283 | 642000 | 249 | 0.00774 | 31100 | 3.53 | 0.00174 | 493000 | binds | ~1
